Laboratory results as given in patent US20190016816A1 (APTEVO RESEARCH AND DEVELOPMENT, published 2019).
Numbering of substitutions follows the chain as printed. Values belong to the binder of their own block, whether it stands above or below them.

Experiments:
[1] = molecular target: T1, cynomolgus 5T4 on cells (cynomolgus macaque, UniProt Q4R8Y9 35-420); assay: flow cytometry, CHO-K1 cells expressing cynomolgus 5T4, labelled anti-human IgG secondary, MFI (median)
T1 construct: whole, on cells; also called CHO-K1/cynomolgus 5T4 transfectants
T1 sequence (looked up): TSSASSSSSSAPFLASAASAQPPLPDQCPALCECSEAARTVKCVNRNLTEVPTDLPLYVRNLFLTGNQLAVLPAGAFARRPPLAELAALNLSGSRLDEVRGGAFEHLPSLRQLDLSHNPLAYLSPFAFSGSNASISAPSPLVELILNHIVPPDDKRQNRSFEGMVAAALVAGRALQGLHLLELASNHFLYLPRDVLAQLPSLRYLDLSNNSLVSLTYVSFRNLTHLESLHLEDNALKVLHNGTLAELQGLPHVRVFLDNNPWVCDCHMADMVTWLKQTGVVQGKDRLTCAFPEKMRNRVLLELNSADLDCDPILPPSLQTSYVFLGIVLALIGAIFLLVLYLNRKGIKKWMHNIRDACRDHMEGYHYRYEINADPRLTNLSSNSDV
Experimental: (§1) Binding studies were performed by standard flow cytometry-based staining procedures two cell lines expressing 5T4:CHO-K1 cells (obtained from Alligator) transduced with human or cynomolgus macaque 5T4 and SKOV-3 human ovarian adenocarcinoma cells which express (human) 5T4. All labeling and washes were performed in U-bottom 96-well plates in saline buffer with 0.1% BSA and 2 mM EDTA. Cell were plated at approximately 100,000 cells per well and incubated with a range of 100 nM to 0.05 nM concentrations of test molecules in […], for 30 minutes on ice. Cells were washed three times then incubated for another 30 min on ice with fluorescently-labeled secondary polyclonal antibody, F(ab′)² goat anti-human IgG (Jackson ImmunoResearch Laboratories). The cells were then washed twice and the samples acquired in a BD LSRII or a Symphony A3 flow cytometer. The sample files were analyzed using FlowJo software; the mean fluorescence intensity (MFI-mean) or median fluorescence intensity (MFI-median) of the live population of cells in each well was calculated after gating on live cells (forward vs side scatter). Nonlinear regression analysis to determine EC₅₀ values was performed in GraphPad Prism 6® graphing and statistics software.

[2] = molecular target: T2, human CD137 on cells (human, UniProt Q07011 24-255); assay: flow cytometry, CHO-K1 cells expressing human CD137, PE anti-human IgG Fc secondary, MFI (median)
T2 construct: also called 4-1BB; TNFRSF9 (CHO-K1/human CD137 cells)
T2 sequence (Q07011 24-255 limits assumed): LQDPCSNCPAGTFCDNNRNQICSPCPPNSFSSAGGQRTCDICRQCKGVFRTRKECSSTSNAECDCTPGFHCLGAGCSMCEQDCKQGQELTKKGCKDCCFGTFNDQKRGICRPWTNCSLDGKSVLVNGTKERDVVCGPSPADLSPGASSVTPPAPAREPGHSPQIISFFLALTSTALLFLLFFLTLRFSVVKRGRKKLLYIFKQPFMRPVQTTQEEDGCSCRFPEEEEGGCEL
Experimental: (§2) Binding studies on CHO-K1 cells lines expressing CD137 were performed by standard flow cytometry-based staining procedures. CHO-K1 cells (generated by Alligator) were transfected with human or cynomolgus macaque CD137. A typical experiment would label approximately 100,000 cells per well, in 96-well plates, with a range of 100 nM to 0.05 nM binding molecule in 50 μL of saline buffer with 2% BSA and 2 mM EDTA, for 30 min on ice, followed by washes and incubation with PE-labeled secondary antibody, goat anti-human IgG Fcγ ([…]), for 20 minutes on ice. Signal from bound molecules was detected using a LSR-II™ or a Symphony A3 flow cytometer (BD Biosciences) and analyzed by FlowJo flow cytometry analysis software. Median fluorescence intensity (MFI-median) of bound molecules on live cells was determined after exclusion of doublets cells. Nonlinear regression analysis to determine EC₅₀ values was performed in GraphPad Prism 6® graphing and statistics software.

[3] = molecular target: T3, cynomolgus CD137 on cells (cynomolgus macaque, UniProt A9YYE7 24-254); assay: flow cytometry, CHO-K1 cells expressing cynomolgus CD137, PE anti-human IgG Fc secondary, MFI (median)
T3 construct: whole, on cells; also called CHO-K1/cynomolgus CD137 cell line; cynomolgus monkey CD137 on CD3-stimulated primary CD8 T cells
T3 sequence (A9YYE7 entry or part of it): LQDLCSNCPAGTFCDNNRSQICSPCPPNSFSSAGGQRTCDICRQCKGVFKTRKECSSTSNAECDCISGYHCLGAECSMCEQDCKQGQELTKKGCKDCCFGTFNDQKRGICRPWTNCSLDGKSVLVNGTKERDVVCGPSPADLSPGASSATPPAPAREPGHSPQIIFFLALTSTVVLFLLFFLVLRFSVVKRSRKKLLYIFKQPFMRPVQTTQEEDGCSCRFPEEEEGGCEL
Experimental: as §2

[4] = molecular target: T4, human 5T4 on cells (human, UniProt Q13641 32-420); assay: flow cytometry, CHO-K1 cells expressing human 5T4, labelled anti-human IgG secondary, MFI (mean)
T4 construct: also called TPBG; hu5T4
T4 sequence: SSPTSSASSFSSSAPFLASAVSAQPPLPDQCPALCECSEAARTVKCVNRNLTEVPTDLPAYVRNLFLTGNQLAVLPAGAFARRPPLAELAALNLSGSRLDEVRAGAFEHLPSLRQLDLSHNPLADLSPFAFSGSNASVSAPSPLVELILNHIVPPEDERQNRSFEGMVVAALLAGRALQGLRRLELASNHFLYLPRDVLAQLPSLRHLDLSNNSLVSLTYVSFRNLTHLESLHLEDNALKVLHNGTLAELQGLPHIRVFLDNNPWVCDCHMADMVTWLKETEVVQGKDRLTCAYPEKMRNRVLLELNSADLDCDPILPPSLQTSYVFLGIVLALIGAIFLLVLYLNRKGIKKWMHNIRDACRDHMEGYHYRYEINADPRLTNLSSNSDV
Experimental: as §1

[5] = molecular target: T2, human CD137 on cells; assay: cell-based or functional assay
[6] = molecular target: T4, human 5T4 on cells; assay: flow cytometry, SKOV-3 cells (endogenous human 5T4), labelled anti-human IgG secondary, MFI (mean)
Experimental: as §1

- EC50 [1]: 22 nM
- Maximum MFI [1]: 25100
- EC50 [2]: 1.1 nM
- EC50 [3]: 1.7 nM
- EC50 [4]: 10.9 nM
- Maximum MFI [4]: 14100
- CD137 reporter assay with HCC1143 cells, EC50 against ALG.APV-006 and ALG.APV-004 [5]: ≤ 6 fold lower EC50
B1: ALG.APV-191 (bispecific antibody)
chain: EVQLLESGGGLVQPGGSLRLSCAASGFTFDYGSMYWVRQAPGKGLEWVSSISSGSGSTYYADSVKGRFTISHDNSKNTLYLQMNSLRAEDTAVYYCARSSYYGSYYSIDYWGQGTLVTVSSGGGGSGGGGSGGGGSGGGGSDIQMTQSPSSLSASVGDRVTITCRASQSISSYLNWYQQKPGKAPKLLIYAASSLHSGVPSRFSGSGSGTDFTLTISSLQPEDFATYYCQQYYDNLPTFGQGTKLEIKSSEPKSSDKTHTCPPCPAPEAAGAPSVFLFPPKPKDTLMISRTPEVTCVVVDVSHEDPEVKFNWYVDGVEVHNAKTKPREEQYNSTYRVVSVLTVLHQDWLNGKEYKCAVSNKALPAPIEKTISKAKGQPREPQVYTLPPSRDELTKNQVSLTCLVKGFYPSDIAVEWESNGQPENNYKTTPPVLDSDGSFFLYSKLTVDKSRWQQGNVFSCSVMHEALHNHYTQKSLSLSPGSGGGGSGGGGSGGGGSPSEVQLLESGGGLVQPGGSLRLSCAASGFTFSSYAMSWVRQAPGKCLEWVSAISGSGGSTYYADSVKGRFTISRDNSKNTLYLQMNSLRAEDTAVYYCARYYGGYYSAWMDYWGQGTLVTVSSGGGGSGGGGSGGGGSGGGGSDIQMTQSPSSLSASVGDRVTITCRASQSISSFLNWYQQKPGKAPKLLIYAASSLQSGVPSRFSGSGSGTDFTLTISSLQPEDFATYYCQQTYGYLHTFGCGTKLEIKS
notes: Optimized ADAPTIR scFv-Fc-scFv homodimer

- EC50 [1]: 7 nM
- Maximum MFI [1]: 21100
- EC50 [2]: 0.9 nM
- EC50 [3]: 1.8 nM
- EC50 [4]: 3.4 nM
- Maximum MFI [4]: 13500
- EC50 [6]: 1.7 nM
- Maximum MFI [6]: 1130
- CD137 reporter assay with HCC1143 cells, EC50 against ALG.APV-006 and ALG.APV-004 [5]: ≤ 6 fold lower EC50
B2: ALG.APV-196 (bispecific antibody)
chain: B1 chain with D30S, H196Q, T527D, S529E, S670R, F672A, S748R
notes: as for B1

- EC50 [1]: 7 nM
- Maximum MFI [1]: 20600
- EC50 [2]: 1 nM
- EC50 [3]: 1.8 nM
- EC50 [4]: 3.1 nM
- Maximum MFI [4]: 13200
- EC50 [6]: 1.8 nM
- Maximum MFI [6]: 1070
- CD137 reporter assay with HCC1143 cells, EC50 against ALG.APV-006 and ALG.APV-004 [5]: ≤ 6 fold lower EC50
B3: ALG.APV-198 (bispecific antibody)
chain: B1 chain with D30S, Y31H, H196Q, T527D, S529E, S670R, F672A, S748R
notes: as for B1
